We go through two substances from paper PMC12063177.

pKd: −log10 of the molar value.

The target of test [1] is YaxAΔ40B_(weak-50aa) nanopore. Put plainly: single-channel nanopore electrical recording; single pore in a DPhPC planar bilayer; SA 20 nM or BT 50 nM added to cis; -75 mV; 150 mM NaCl, 15 mM TrisHCl pH 7.5.
In test [2] the target is YaxAΔ40B_(strepII-70aa) nanopore. Put plainly: single-channel nanopore electrical recording; apparent constants; SA titrated 1-25 nM in cis in 25% (v/v) mixed-protein solution (602 uM BSA, 35 uM HTf, 100 nM BT, 100 nM CRP before dilution); 80 nM biotin in trans; PDB11PEO8:DPhPC (1:1) hybrid bilayer; -75 mV sweeps protocol; 150 mM NaCl, 15 mM TrisHCl pH 7.5.
Test [3] deals with streptavidin (Streptomyces avidinii) (UniProt P22629). Particulars: cited from earlier work.
streptavidin (Streptomyces avidinii), sequence (P22629 25-183): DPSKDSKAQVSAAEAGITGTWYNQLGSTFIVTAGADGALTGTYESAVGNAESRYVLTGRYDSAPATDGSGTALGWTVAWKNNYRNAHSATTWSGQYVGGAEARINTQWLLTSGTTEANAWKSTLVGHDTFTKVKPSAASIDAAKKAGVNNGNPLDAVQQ

Streptavidin, sequence (P22629 25-183): as above

On to “Streptavidin (from UniProt P22629 25-183) (natural protein)”, for which the dwell time in test [1] stood at 5580 ms. Also, in test [2], the negative-log Kd (pKd) (in general, −log10 of the Kd, conventionally taken in molar units) is 7.64; the koff (as a rule, a measure of how fast the partners let go of each other) was found to be 0.2 s⁻¹; the kon (as a rule, the rate constant with which the complex forms) was 8.77e+06 M⁻¹ s⁻¹.

Consider strepII-peptide, for which, in test [3], the pKd is 4.15.
